Target: SpyCatcher-tagged ferritin
Assay: SDS-PAGE of the covalent conjugate; purified SC-FN and rePO-ST mixed in vitro overnight (12 hours) at 4 °C in molar ratios 1:8 to 1:28; isopeptide bond between SpyTag and SpyCatcher; new band on SDS-PAGE

Work on “SpyTag-tagged rePO (recombinant PcrV-OprI with SpyTag at the C-terminus) (from UniProt G3XD49 28-294; P11221 25-83)” yielded a proportion of conjugated ferritin of 70%.

From PMC10321299
